In patent US20240425589A1, “CYTOTOXICITY-INDUCING THERAPEUTIC AGENT FOR USE IN TREATMENT OF CANCER” (CHUGAI SEIYAKU KABUSHIKI KAISHA, priority 2021, published 2024):
Residue numbers refer to the chain shown, from its start.

B1: H1610L0581: affinity matured Dual-Fab variant, VH SEQ ID NO 94, VL SEQ ID NO 143 (antibody, V domains shown)
VH: QVQLVESGGGLVQPGRSLRLSCAASGFVFSNVWMHWVRQAPGKGLEWVAQIKDKWNAYAAYYAPSVKGRFTISRDDSKNSIYLQMNSLKTEDTAVYYCHYIHYASASTLLPAEGIDAWGQGTTVTVSS
VL: DIVMTQSPLSLPVTPGEPASISCQPSQEVVHMNRNTYLHWYQQKPGQAPRLLIYKVSNRFPGVPDRFSGSGSGTDFTLKISRVEAEDVGVYYCAQGTSHPFTFGQGTKLEIK
B2: H1647L0581: affinity matured Dual-Fab variant, VH SEQ ID NO 96, VL SEQ ID NO 143 (antibody, V domains shown)
VH: B1 VH with V28K, V32T, M34F, K54Y, W55Y, A57D, I101V, I115V
VL: B1 VL
B3: H1610L0939: affinity matured Dual-Fab variant, VH SEQ ID NO 94, VL SEQ ID NO 145 (antibody, V domains shown)
VH: B1 VH
VL: B1 VL with R59V, S98H
B4: H2594L0581: affinity matured Dual-Fab variant, VH SEQ ID NO 102, VL SEQ ID NO 143 (antibody, V domains shown)
VH: B1 VH with V28K, M34F, K54Y, W55Y, A60G, A63H, I101V, S105A, T108Q, I115V
VL: B1 VL
B5: H1652L0943: affinity matured Dual-Fab variant, VH SEQ ID NO 99, VL SEQ ID NO 146 (antibody, V domains shown)
VH: B1 VH with M34F, K54Y, W55Y, A60D, K67E, I101V, I115V
VL: B1 VL with Q27E, R59L, S98H
B6: H1550L0918: affinity matured Dual-Fab variant, VH SEQ ID NO 92, VL SEQ ID NO 144 (antibody, V domains shown)
VH: B1 VH with V28K, W55Y, E113F, I115V
VL: B1 VL with R34N, N35V, T36V
B7: H1651L0581: affinity matured Dual-Fab variant, VH SEQ ID NO 98, VL SEQ ID NO 143 (antibody, V domains shown)
VH: B1 VH with M34F, W55Y, A60D, K67E, I101V, I115V
VL: B1 VL
B8: H2591L0581: affinity matured Dual-Fab variant, VH SEQ ID NO 101, VL SEQ ID NO 143 (antibody, V domains shown)
VH: B1 VH with V28K, M34F, K54Y, W55Y, A60G, A63H, I101V, S105A, I115V
VL: B1 VL
B9: H183L072: parental Dual-Fab (CD3/CD137), VH SEQ ID NO 90, VL SEQ ID NO 142 (antibody, V domains shown)
VH: B1 VH with V28T, V32A, W55G, I101V, L109V, E113F, I115V
VL: B1 VL with P25A, V29L, H99V
B10: H1649L0943: affinity matured Dual-Fab variant, VH SEQ ID NO 97, VL SEQ ID NO 146 (antibody, V domains shown)
VH: B1 VH with M34F, W55Y, A60D, G68E, I101V, I115V
VL: B1 VL with Q27E, R59L, S98H
B11: H1643L0581: affinity matured Dual-Fab variant, VH SEQ ID NO 95, VL SEQ ID NO 143 (antibody, V domains shown)
VH: B1 VH with V28K, M34F, K54Y, W55Y, I101V, I115V
VL: B1 VL
B12: H1649L0581: affinity matured Dual-Fab variant, VH SEQ ID NO 97, VL SEQ ID NO 143 (antibody, V domains shown)
VH: B1 VH with M34F, W55Y, A60D, G68E, I101V, I115V
VL: B1 VL
B13: H0868L0581: affinity matured Dual-Fab variant, VH SEQ ID NO 91, VL SEQ ID NO 143 (antibody, V domains shown)
VH: B1 VH with V28K, W55Y, I101V, E113F, I115V
VL: B1 VL
B14: H1673L0943: affinity matured Dual-Fab variant, VH SEQ ID NO 100, VL SEQ ID NO 146 (antibody, V domains shown)
VH: B1 VH with M34F, A60D, G68E
VL: B1 VL with Q27E, R59L, S98H
B15: H1571L0581: affinity matured Dual-Fab variant, VH SEQ ID NO 93, VL SEQ ID NO 143 (antibody, V domains shown)
VH: B1 VH with V28K, M34F, W55Y, A60T, I101V, E113F, I115V
VL: B1 VL
B16: H1673L0581: affinity matured Dual-Fab variant, VH SEQ ID NO 100, VL SEQ ID NO 143 (antibody, V domains shown)
VH: B1 VH with M34F, A60D, G68E
VL: B1 VL

Key:
[1] = target: T1, recombinant human CD3 (human CD3eg linker) (Homo sapiens, UniProt P07766+P09693); test: Biacore T200 SPR affinity of Dual-Fab antibodies to human CD3; format: binding; conditions: 25 degrees C, pH 7.4
T1 construct: made in house; host or cells: FreeStyle293F
Text: The gamma and epsilon subunits of the human CD3 complex (human CD3eg linker) were linked by a 29-mer linker and a Flag-tag was fused to the C-terminal end of the gamma subunit (SEQ ID NO: 169). This construct was expressed transiently using FreeStyle293F cell line (Thermo Fisher). Conditioned media expressing human CD3eg linker was concentrated using a column packed with Q HP resins (GE healthcare) and then applied to FLAG-tag affinity chromatography. Fractions containing human CD3eg linker were collected and subsequently subjected to a Superdex 200 gel filtration column (GE healthcare) equilibrated with 1×D-PBS. Fractions containing human CD3eg linker were then pooled and stored at −80 degrees C.
(§1) Binding affinity of Dual-Fab antibodies (Dual-Ig) to human CD3 were assessed at 25 degrees C. using Biacore T200 instrument (GE Healthcare). Anti-human Fc (GE Healthcare) was immobilized onto all flow cells of a CM4 sensor chip using amine coupling kit (GE Healthcare). Antibodies were captured onto the anti-Fc sensor surfaces, then recombinant human CD3 or CD137 was injected over the flow cell. All antibodies and analytes were prepared in ACES pH 7.4 containing 20 mM ACES, 150 mM NaCl, 0.05% Tween 20, and 0.005% NaN3. Sensor surface was regenerated each cycle with 3M MgCl2. Binding affinity were determined by processing and fitting the data to 1:1 binding model using Biacore T200 Evaluation software, version 2.0 (GE Healthcare). CD137 binding affinity assay was conducted in same condition except assay temperature was set at 37 degrees C.

[2] = target: T2, recombinant human CD137 (Homo sapiens, UniProt Q07011); test: Biacore T200 SPR affinity of Dual-Fab antibodies to human CD137; format: binding; conditions: 37 degrees C, pH 7.4
T2 construct: made in house; host or cells: FreeStyle293F
Text: Human CD137 extracellular domain (ECD) (SEQ ID NO: 179) with hexahistidine (His-tag) and biotin acceptor peptide (BAP) on its C-terminus was expressed transiently using FreeStyle293F cell line (Thermo Fisher). Conditioned media expressing human CD137 ECD was applied to a HisTrap HP column (GE healthcare) and eluted with buffer containing imidazole (Nacalai). Fractions containing human CD137 ECD were collected and subsequently subjected to a Superdex 200 gel filtration column (GE healthcare) equilibrated with 1×D-PBS. Fractions containing human CD137 ECD were then pooled and stored at −80 degrees C.
as §1

T2 sequence (Q07011 with tags, fused parts or gaps): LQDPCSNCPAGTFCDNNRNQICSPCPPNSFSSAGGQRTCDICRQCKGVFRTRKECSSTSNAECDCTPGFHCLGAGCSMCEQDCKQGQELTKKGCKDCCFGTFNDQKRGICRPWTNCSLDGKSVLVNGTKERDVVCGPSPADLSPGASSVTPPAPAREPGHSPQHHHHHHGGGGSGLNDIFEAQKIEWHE
T1 sequence (P07766+P09693 fused): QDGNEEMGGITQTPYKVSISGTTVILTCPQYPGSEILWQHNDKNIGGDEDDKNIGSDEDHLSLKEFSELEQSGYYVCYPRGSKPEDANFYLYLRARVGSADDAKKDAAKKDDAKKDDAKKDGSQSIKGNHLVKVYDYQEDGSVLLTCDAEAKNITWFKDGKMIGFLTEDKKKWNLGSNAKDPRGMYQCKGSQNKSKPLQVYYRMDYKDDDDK

Molecule	CD3 Koff [1] [s⁻¹]	CD3 Kon [1] [M⁻¹ s⁻¹]	CD137 Koff [2] [s⁻¹]	CD137 Kon [2] [M⁻¹ s⁻¹]	Kd [1] [µM]	Kd [2] [µM]
B1	0.00142	68000	0.0011	10700		
B2			0.000647	9980		
B3	0.00253	50000	0.000801	13000		
B4	0.0584	98300	0.00163	20900		
B5	0.0636	62300	0.00047	12900	1.02	
B6	0.00316	72000	0.00579	10900		
B7	0.0371	71800	0.000603	14000		
B8	0.0535	102000	0.000742	20400		
B9	0.012	35400	0.0196	3470		5.66
B10	0.0481	61000	0.000468	14300		
B11	0.0251	94600	0.000606	12300		
B12	0.0336	75000	0.000553	12900		
B13			0.00136	12200		
B14	0.00116	55000	0.000722	12200		
B15			0.00105	12100		
B16	0.00106	79600	0.00096	11900		
